Reference: PMC4230329 (Biochemistry, 2014)

B1: gankyrin-His6x (wild-type gankyrin) (natural protein)
chain: MEGCVSNLMVCNLAYSGKLEELKESILADKSLATRTDQDSRTALHWACSAGHTEIVEFLLQLGVPVNDKDDAGWSPLHIAASAGRDEIVKALLGKGAQVNAVNQNGCTPLHYAASKNRHEIAVMLLEGGANPDAKDHYEATAMHRAAAKGNLKMIHILLYYKASTNIQDTEGNTPLHLACDEERVEEAKLLVSQGASIYIENKEEKTPLQVAKGGLGLILKR
B2: gankyrin E182A (natural protein)
chain: MEGCVSNLMVCNLAYSGKLEELKESILADKSLATRTDQDSRTALHWACSAGHTEIVEFLLQLGVPVNDKDDAGWSPLHIAASAGRDEIVKALLGKGAQVNAVNQNGCTPLHYAASKNRHEIAVMLLEGGANPDAKDHYEATAMHRAAAKGNLKMIHILLYYKASTNIQDTEGNTPLHLACDAERVEEAKLLVSQGASIYIENKEEKTPLQVAKGGLGLILKR
B3: gankyrin K116A (natural protein)
chain: MEGCVSNLMVCNLAYSGKLEELKESILADKSLATRTDQDSRTALHWACSAGHTEIVEFLLQLGVPVNDKDDAGWSPLHIAASAGRDEIVKALLGKGAQVNAVNQNGCTPLHYAASANRHEIAVMLLEGGANPDAKDHYEATAMHRAAAKGNLKMIHILLYYKASTNIQDTEGNTPLHLACDEERVEEAKLLVSQGASIYIENKEEKTPLQVAKGGLGLILKR
B4: gankyrin-His6x R41A (natural protein)
chain: MEGCVSNLMVCNLAYSGKLEELKESILADKSLATRTDQDSATALHWACSAGHTEIVEFLLQLGVPVNDKDDAGWSPLHIAASAGRDEIVKALLGKGAQVNAVNQNGCTPLHYAASKNRHEIAVMLLEGGANPDAKDHYEATAMHRAAAKGNLKMIHILLYYKASTNIQDTEGNTPLHLACDEERVEEAKLLVSQGASIYIENKEEKTPLQVAKGGLGLILKR
B5: gankyrin-His6x R41A/K116A (natural protein)
chain: MEGCVSNLMVCNLAYSGKLEELKESILADKSLATRTDQDSATALHWACSAGHTEIVEFLLQLGVPVNDKDDAGWSPLHIAASAGRDEIVKALLGKGAQVNAVNQNGCTPLHYAASANRHEIAVMLLEGGANPDAKDHYEATAMHRAAAKGNLKMIHILLYYKASTNIQDTEGNTPLHLACDEERVEEAKLLVSQGASIYIENKEEKTPLQVAKGGLGLILKR
B6: gankyrin-His6x D39A/D71A (natural protein)
chain: MEGCVSNLMVCNLAYSGKLEELKESILADKSLATRTDQASRTALHWACSAGHTEIVEFLLQLGVPVNDKDAAGWSPLHIAASAGRDEIVKALLGKGAQVNAVNQNGCTPLHYAASKNRHEIAVMLLEGGANPDAKDHYEATAMHRAAAKGNLKMIHILLYYKASTNIQDTEGNTPLHLACDEERVEEAKLLVSQGASIYIENKEEKTPLQVAKGGLGLILKR
B7: Grafted FtsH-S6 ATPase, His6x-tagged (wild-type) (other)
chain: MLTEDQIKTTFADVAGCDEAKEEVAELVEYLREPSRFQKLGGKIPKGVLMVGPPGTGKTLLAKAIAGEAKVPFFTISGSDFVEMFVGVGASRVRDMFEQAKKAAPCIIFIDEIDAVGRQRGAGLGGGHDEREQTLNQMLVEMDGFEGNEGIIVIAATNRPDVLDPALLRPGRFDRQVVVGLPDRRQKRLIFSTITSKMNLSEEVDLEDYVARPDKISGADINSICQESGMLAVRENRYIVLAKDFEKAYKTVIKKDEQEHEFYK

Assays:
Experiment in all cases: ITC
[1] = target: FtsH-S6 ATPase R342A (ITC protein) (Escherichia coli | , UniProt P43686 337-418, R342A)
[2] = target: FtsH-S6 ATPase R338A/R342A (ITC protein) (Escherichia coli | , UniProt P43686 337-418, R338A | R342A)
[3] = target: FtsH-S6 ATPase K397E (ITC protein) (Escherichia coli | , UniProt P43686 337-418, K397E)
[4] = target: FtsH-S6 ATPase R338A/R339A/R342A (ITC protein) (Escherichia coli | , UniProt P43686 337-418, R338A | R339A | R342A)
[5] = target: B7
[6] = target: FtsH-S6 ATPase E356A/E357A (ITC protein) (Escherichia coli | , E356A | E357A)
[7] = target: B5
gankyrin K116A = target: B3
gankyrin E182A = target: B2
gankyrin-His6x R41A = target: B4
[8] = target: B1
gankyrin-His6x D39A/D71A = target: B6

Binder: B1
Kd [1]: 0.217 µM
dH [1]: -92 kJ/mol
Kd [2]: 2.55 µM
dH [2]: -25.5 kJ/mol
Kd [3]: 0.0952 µM
dH [3]: -107 kJ/mol
Kd [4]: 7.47 µM
dH [4]: -9.2 kJ/mol
dH [5]: -120 kJ/mol
Kd [6]: 0.0718 µM
dH [6]: -114 kJ/mol

Binder: B2
dH [5]: -118 kJ/mol

Binder: B3
dH [5]: -100 kJ/mol

Binder: B4
dH [5]: -71.5 kJ/mol

Binder: B5
dH [5]: -20.5 kJ/mol

Binder: B6
dH [5]: -105 kJ/mol

Binder: B7
Kd [7]: 3.63 µM
Kd (gankyrin K116A): 0.0713 µM
Kd (gankyrin E182A): 0.141 µM
Kd (gankyrin-His6x R41A): 0.313 µM
Kd [8]: 0.0673 µM
Kd (gankyrin-His6x D39A/D71A): 0.093 µM
